According to the Immune Epitope Database (IEDB):

Tests used:
[1] = target: HLA-A*01:01; assay: IEDB peptide-MHC binding, purified MHC/direct/fluorescence; filed as Kd, often an IC50 or EC50 that approximates it; ≥ and ≤ were set here for values at or beyond the usual limits of such assays
[2] = target: HLA-A*02:01; assay: as above
[3] = target: HLA-A*03:01; assay: as above
[4] = target: HLA-A*29:02; assay: as above; conditions: source organism: Mycolicibacterium gilvum
[5] = target: HLA-A*31:01; assay: as above; conditions: source organism: Mycolicibacterium gilvum
[6] = target: HLA-A*69:01; assay: as above
[7] = target: HLA-B*15:01; assay: as above
[8] = target: HLA-B*18:01; assay: as above
[9] = target: HLA-B*27:05; assay: as above
[10] = target: HLA-B*39:01; assay: as above; conditions: source organism: Mycolicibacterium gilvum PYR-GCK
[11] = target: HLA-B*40:01; assay: as above
[12] = target: HLA-B*44:02; assay: as above; conditions: source organism: Mycolicibacterium gilvum
[13] = target: HLA-B*46:01; assay: as above
[14] = target: HLA-B*48:01; assay: as above
[15] = target: HLA-B*57:01; assay: as above
[16] = target: HLA-B*58:01; assay: as above
[17] = target: HLA-B*07:02; assay: IEDB peptide-MHC binding, purified MHC/competitive/fluorescence; ≥ and ≤ were set here for values at or beyond the usual limits of such assays
[18] = target: HLA-A*02:01; assay: as above; conditions: source organism: Zaire ebolavirus
[19] = target: HLA-A*24:02; assay: as above; conditions: source organism: Zaire ebolavirus
[20] = target: HLA-A*11:01; assay: IEDB peptide-MHC binding, purified MHC/direct/fluorescence; filed as Kd, often an IC50 or EC50 that approximates it; ≥ and ≤ were set here for values at or beyond the usual limits of such assays; conditions: source organism: Influenza A virus (A/duck/Hokkaido/1130/01(H1N1))
[21] = target: HLA-B*07:02; assay: as above; conditions: source organism: Influenza A virus (A/duck/Hokkaido/1130/01(H1N1))
[22] = target: HLA-B*15:17; assay: as above; conditions: source organism: Influenza A virus (A/duck/Hokkaido/1130/01(H1N1))
[23] = target: HLA-B*51:01; assay: as above; conditions: source organism: Influenza A virus (A/duck/Hokkaido/1130/01(H1N1))
[24] = target: HLA-A*02:03; assay: IEDB peptide-MHC binding, purified MHC/competitive/fluorescence; filed as Kd, often an IC50 or EC50 that approximates it; ≥ and ≤ were set here for values at or beyond the usual limits of such assays; conditions: source organism: Influenza A virus (A/81/HO)
[25] = target: HLA-A*31:01; assay: as above; conditions: source organism: Influenza A virus (A/81/HO)
[26] = source organism: Mycolicibacterium gilvum
[27] = source organism: Influenza A virus (A/duck/Hokkaido/1130/01(H1N1))

## PHDPDFLVL
[1]; [26]
  Kd: ≥ 20 µM
[2]; [26]
  Kd: ≥ 20 µM
[3]; [26]
  Kd: ≥ 20 µM
[4]
  Kd: ≥ 20 µM
[5]
  Kd: ≥ 20 µM
[6]; [26]
  Kd: ≥ 20 µM
[7]; [26]
  Kd: ≥ 20 µM
[8]; [26]
  Kd: ≥ 20 µM
[9]; [26]
  Kd: ≥ 20 µM
[10]
  Kd: 6.76 µM
[11]; [26]
  Kd: ≥ 20 µM
[12]
  Kd: ≥ 20 µM
[13]; [26]
  Kd: ≥ 20 µM
[14]; [26]
  Kd: ≥ 20 µM
[15]; [26]
  Kd: ≥ 20 µM
[16]; [26]
  Kd: ≥ 20 µM

## RPSSSQIPS
[17]; source organism: Sudan ebolavirus
  IC50: 10.9 µM

## VATAHGSTL
[18]
  IC50: ≥ 136 µM
[19]
  IC50: 12.7 µM
[17]; source organism: Zaire ebolavirus
  IC50: ≥ 70.5 µM

## ELRSRYWAI
[1]; [27]
  Kd: ≥ 20 µM
[2]; [27]
  Kd: ≥ 20 µM
[3]; [27]
  Kd: ≥ 20 µM
[20]
  Kd: ≥ 20 µM
[6]; [27]
  Kd: 0.151 µM
[21]
  Kd: ≥ 20 µM
[7]; [27]
  Kd: ≥ 20 µM
[22]
  Kd: ≥ 20 µM
[8]; [27]
  Kd: 2.45 µM
[9]; [27]
  Kd: ≥ 20 µM
[11]; [27]
  Kd: ≥ 20 µM
[13]; [27]
  Kd: ≥ 20 µM
[14]; [27]
  Kd: ≥ 20 µM
[23]
  Kd: ≥ 20 µM
[15]; [27]
  Kd: ≥ 20 µM
[16]; [27]
  Kd: ≥ 20 µM
[24]
  Kd: ≥ 20 µM
[25]
  Kd: ≥ 20 µM
